# Measured values: article PMC5423654
# B1: S. aureus SQR (sulfide:quinone oxidoreductase) (Staphylococcus aureus subsp. aureus NCTC 8325) (protein)
# chain: MNKHYQIVIIGGGTAGVTVASRLLRKNQNLKEKIAIIDPADHHYYQPLWTLVGAGVSSLKSSRKDMESVIPEGANWIKQAVSSFQPENNSVILGDNTVVYYDFLVVAPGLQINWSSIKGLKENIGKNGVCSNYSPDYVNETWNQISNFKQGNAIFTHPNTPIKCGGAPMKIMYLAEDYFRKHKIRSNANVIYATPKDALFDVGKYNKELERIVEERNITVNYNYNLVEIDGDKKVATFEHIKAYDRKTISYDMLHVTPPMGPLDVVKESTLSDSEGWVDVNPTTLQHKSYSNVFALGDASNVPTSKTGAAIRKQAPIVANNLLQVMNNQMLTHHYDGYTSCPIVTGYNRLILAEFDYNKNTKETMPFNQAKERRSMYIFKKDLLPKMYWYGMLKGLI
# Substrate: S
# Test: UV-vis quinone reduction, steady-state kinetics
# Format: biochemical, Staphylococcus aureus
# Conditions: pH 8.0; 25.0 °C
protein,measurement,value
B1,Km,22 ± 7 µM
same,Vmax,0.41 µmol/min/mg
same,kcat/Km,14100 ± 4600 M⁻¹ s⁻¹
